Laboratory results taken from US20240270857A1 (CHIA TAI TIANQING PHARMACEUTICAL GROUP, published 2024).
Each block holds one binder with its values, some of them ahead of it.

Columns and labels:
[1] = molecular target: T1, hIL36R-ECD hFc recombinant protein (human); experiment: ELISA of hybridoma culture supernatant on hIL-36R
T1 construct: also called hIL-36R extracellular region with human antibody heavy chain Fc

[2] = molecular target: T2, human IL-36R overexpressed on 293T-hIL36R-NFκB cells (human, UniProt Q9HB29 20-575); experiment: cell-based or functional assay
T2 sequence: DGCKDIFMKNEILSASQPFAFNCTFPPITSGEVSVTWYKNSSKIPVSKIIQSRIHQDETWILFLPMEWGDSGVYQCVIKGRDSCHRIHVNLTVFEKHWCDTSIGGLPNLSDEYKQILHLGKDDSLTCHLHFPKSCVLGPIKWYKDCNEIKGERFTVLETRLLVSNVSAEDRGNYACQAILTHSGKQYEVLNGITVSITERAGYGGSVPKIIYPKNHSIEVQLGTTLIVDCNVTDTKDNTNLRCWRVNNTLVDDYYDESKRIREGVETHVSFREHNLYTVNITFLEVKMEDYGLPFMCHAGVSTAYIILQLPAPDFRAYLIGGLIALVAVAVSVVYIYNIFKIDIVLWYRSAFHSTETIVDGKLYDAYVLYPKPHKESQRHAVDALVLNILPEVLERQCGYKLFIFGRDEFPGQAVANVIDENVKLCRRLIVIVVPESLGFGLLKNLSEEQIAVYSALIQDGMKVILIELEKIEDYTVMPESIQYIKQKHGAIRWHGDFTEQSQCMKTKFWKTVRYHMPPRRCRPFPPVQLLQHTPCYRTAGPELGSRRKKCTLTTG

[3] = molecular target: T3, cynomolgus IL-36R overexpressed on 293T-CynoIL36R-NFκB cells (cynomolgus monkey); experiment: FACS on 293T-CynoIL36R-NFκB cells, ratio of MFI to background MFI
T3 construct: Entry includes the signal peptide; also called monkey IL-36R
T3 chain: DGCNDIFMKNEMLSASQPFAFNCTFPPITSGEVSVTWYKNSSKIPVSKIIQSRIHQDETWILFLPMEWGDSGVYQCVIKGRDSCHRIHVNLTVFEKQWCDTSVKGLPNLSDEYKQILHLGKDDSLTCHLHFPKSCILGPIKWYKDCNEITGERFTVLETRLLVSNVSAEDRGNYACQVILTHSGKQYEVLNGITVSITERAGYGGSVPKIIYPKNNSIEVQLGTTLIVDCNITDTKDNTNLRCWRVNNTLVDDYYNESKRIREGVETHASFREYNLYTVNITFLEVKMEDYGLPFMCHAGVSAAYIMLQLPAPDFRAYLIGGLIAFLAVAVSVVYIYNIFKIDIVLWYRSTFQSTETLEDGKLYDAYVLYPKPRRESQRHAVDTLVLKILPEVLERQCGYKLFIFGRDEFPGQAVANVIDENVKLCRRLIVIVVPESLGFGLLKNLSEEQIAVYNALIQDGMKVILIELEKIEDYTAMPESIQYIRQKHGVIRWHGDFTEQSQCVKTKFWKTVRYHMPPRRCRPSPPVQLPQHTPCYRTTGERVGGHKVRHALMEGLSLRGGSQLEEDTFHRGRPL
Protocol: After the cells was washed with PBS, the cells were resuspended with 100 μL of PBS and then the fluorescence signal was detected using a flow cytometer (BD, Accuri C6). […] The ratio was the ratio of mean fluorescence intensity (MFI) of the experimental group/the background MFI, and the resulting data were analyzed using GraphPad Prism.

[4] = molecular target: T4, IL-36R naturally expressed on OVCAR8 cells and on normal human epidermal keratinocytes (NHK cells) (human, UniProt Q9HB29 20-575); experiment: cell-based or functional assay
T4 sequence (looked up): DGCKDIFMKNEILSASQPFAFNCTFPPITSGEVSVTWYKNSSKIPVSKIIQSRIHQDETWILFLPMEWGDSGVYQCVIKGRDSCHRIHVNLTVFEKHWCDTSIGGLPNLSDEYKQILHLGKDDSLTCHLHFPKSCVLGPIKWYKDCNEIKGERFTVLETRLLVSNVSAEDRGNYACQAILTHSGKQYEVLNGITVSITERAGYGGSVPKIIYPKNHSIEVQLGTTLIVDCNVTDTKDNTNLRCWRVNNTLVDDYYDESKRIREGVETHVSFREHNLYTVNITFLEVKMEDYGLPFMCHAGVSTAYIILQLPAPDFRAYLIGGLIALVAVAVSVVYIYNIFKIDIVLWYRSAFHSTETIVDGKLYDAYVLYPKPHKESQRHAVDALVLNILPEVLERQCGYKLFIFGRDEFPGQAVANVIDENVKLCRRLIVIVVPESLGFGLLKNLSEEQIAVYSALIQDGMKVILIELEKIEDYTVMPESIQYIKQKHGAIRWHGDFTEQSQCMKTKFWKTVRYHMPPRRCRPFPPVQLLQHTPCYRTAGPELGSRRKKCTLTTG

[5] = molecular target: T4, IL-36R naturally expressed on OVCAR8 …; experiment: cell-based or functional assay; remark: listed apart in the source
[6] = molecular target: T2, human IL-36R overexpressed on …; experiment: cell-based or functional assay; remark: listed apart in the source
[7] = molecular target: T4, IL-36R naturally expressed on OVCAR8 …; experiment: cell-based or functional assay; remark: listed apart in the source
[8] = molecular target: T4, IL-36R naturally expressed on OVCAR8 …; experiment: cell-based or functional assay; remark: listed apart in the source
[9] = molecular target: T4, IL-36R naturally expressed on OVCAR8 …; experiment: cell-based or functional assay; remark: listed apart in the source
[10] = molecular target: T4, IL-36R naturally expressed on OVCAR8 …; experiment: cell-based or functional assay; remark: listed apart in the source
[11] = molecular target: T2, human IL-36R overexpressed on …; experiment: cell-based or functional assay; remark: listed apart in the source
[12] = molecular target: T5, Human IL-1Rrp2/IL-1R6 protein, His Tag (ACROBiosystems, IL2-H52H6) (human, UniProt Q9HB29 20-335); experiment: BLI (ForteBio Octet), antibody on ProA sensor, 1:1 model
T5 construct: Bought protein; the soluble protein is likely only the extracellular part; also called hIL-36R; human IL36R antigen; not shown: His tag
T5 sequence: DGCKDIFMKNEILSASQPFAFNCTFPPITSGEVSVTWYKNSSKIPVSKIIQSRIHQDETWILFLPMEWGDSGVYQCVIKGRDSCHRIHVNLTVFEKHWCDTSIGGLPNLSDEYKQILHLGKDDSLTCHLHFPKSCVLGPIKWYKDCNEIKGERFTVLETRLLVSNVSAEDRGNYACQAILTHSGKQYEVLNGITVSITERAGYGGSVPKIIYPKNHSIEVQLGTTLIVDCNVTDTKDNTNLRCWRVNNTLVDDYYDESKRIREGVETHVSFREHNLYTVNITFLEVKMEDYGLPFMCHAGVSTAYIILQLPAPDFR
Protocol: The affinity of anti-IL-36R antibodies to CynoIL36R-ECD mFc and human IL-1Rrp2/IL-IR6 protein, His Tag (ACROBiosystems, IL2-H52H6) was measured by a ForteBio molecular interaction instrument. […] And then the biosensor was used to bind CynoIL36R-ECD mFc or human IL-1Rrp2/IL-1R6 protein, His Tag which was diluted by a gradient (the initial concentration was 200 nM, 2-fold gradient dilution), the response signals were detected in real time using a Fortebio molecular interaction instrument (SARTORIUS, octet red 96e), and association and dissociation curves were obtained. After the completion of dissociation in each cycle, the biosensor was regenerated for the next capture; the procedure was repeated until the affinity of the different anti-IL-36R antibodies for IL-36R was determined. The resulting data were analyzed by Fortebio Data Analysis 11.0 software in a 1:1 (Langmuir) binding model to determine kₐ (kₒₙ) and kd (koff) values, and the dissociation constant KD was calculated by KD=kd/kₐ. The detection method essentially followed the manufacturer's recommendations, and more information could be found at www.fortebio.com.

T1 sequence (chain, as listed by the source limits assumed): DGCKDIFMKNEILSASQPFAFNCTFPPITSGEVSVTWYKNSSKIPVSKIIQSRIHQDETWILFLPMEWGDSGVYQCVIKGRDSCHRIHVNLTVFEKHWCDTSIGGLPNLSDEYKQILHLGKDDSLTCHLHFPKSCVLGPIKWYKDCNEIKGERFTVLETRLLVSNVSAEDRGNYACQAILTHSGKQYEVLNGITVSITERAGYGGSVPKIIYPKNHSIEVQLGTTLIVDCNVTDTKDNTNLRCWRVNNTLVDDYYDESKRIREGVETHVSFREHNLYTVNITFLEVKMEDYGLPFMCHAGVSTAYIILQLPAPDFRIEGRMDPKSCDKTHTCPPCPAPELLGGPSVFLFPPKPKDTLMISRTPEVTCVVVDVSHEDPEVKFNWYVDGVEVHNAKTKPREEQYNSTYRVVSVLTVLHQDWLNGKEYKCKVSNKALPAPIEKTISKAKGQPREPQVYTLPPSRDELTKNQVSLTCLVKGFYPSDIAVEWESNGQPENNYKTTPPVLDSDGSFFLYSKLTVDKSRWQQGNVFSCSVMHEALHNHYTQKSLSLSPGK

B1: mouse antibody 74B4D6 (hybridoma clone 74B4D6) (antibody, V domains shown)
VH: EVQLQQPGAELGKPGASVKMACKASGYTFTNYWIHWVKQRPGQGLEWIGTIDPSENYTNYNQKFKGKATLTVDTSSSTAYMQLSSLTSEDKAVYFCTGSSFSYWGQGTLVTVSA
VL: QNVLTQSPAIMSVSPGEKVTMTCSASSSVSFIHWFQQKPGTSPKLWIYTTSNLASGVPARFSGSGSGTSYSLTISRMEAEDAATYYCQQRSSYPLTFGAGTKLELK
notes: Mouse hybridoma antibody tested as culture supernatant
binding result [1]: binds

B3: chimeric 58A8D1 antibody (antibody, human IgG4 S228P, kappa, V domains shown)
VH: EVQLQQLGSVLVRPGISVKLSCKASGYSFTSSWMHWTKQRPGQGLEWIGEIHPNSGNTNYNEKFKGKATLTVDTSSRTAYVDLSSLTSEDSAVYYCARSPYGYGGSMDYWGQGTSVTVSS
VL: DIQMTQTTSSLSASLGDRVTISCRASQDIHNYLNWYQQKPDGTVKLLIYYTSRLYSGVPSRFSGSGSGTDYSLTISNLEQEDFATYFCQQGNTLPVMFGSGTKLELKR
notes: Mouse variable regions on human IgG4 / kappa; also called xi58A8D1
IC50; NFκB-luciferase reporter in 293T-hIL36R-NFκB cells stimulated with hIL36α, inhibition rate % [2]: 16.4 nM
EC50 [3]: 20.8 nM
IC50; IL-8 production of NHK cells stimulated with hIL36β, inhibition rate % [4]: 0.0791 nM
IC50; IL-8 production of OVCAR8 cells stimulated with hIL36α, inhibition rate % [5]: 0.253 nM
IC50; NFκB-luciferase reporter in 293T-hIL36R-NFκB cells stimulated with hIL36γ, inhibition rate % [6]: ~40.8 nM
IC50; IL-8 production of OVCAR8 cells stimulated with hIL36γ, inhibition rate % [7]: 0.213 nM
IC50; IL-8 production of NHK cells stimulated with hIL36γ, inhibition rate % [8]: 0.0136 nM
IC50; IL-8 production of NHK cells stimulated with hIL36α, inhibition rate % [9]: 0.0693 nM
IC50; IL-8 production of OVCAR8 cells stimulated with hIL36β, inhibition rate % [10]: 0.415 nM
IC50; NFκB-luciferase reporter in 293T-hIL36R-NFκB cells stimulated with hIL36β, inhibition rate % [11]: 9.77 nM
Kd [12]: 0.254 nM
koff [12]: 9.15e-06 s⁻¹
kon [12]: 36000 M⁻¹ s⁻¹

B4: mouse antibody 58A8D1 (hybridoma clone 58A8D1) (antibody, V domains shown)
VH: EVQLQQLGSVLVRPGISVKLSCKASGYSFTSSWMHWTKQRPGQGLEWIGEIHPNSGNTNYNEKFKGKATLTVDTSSRTAYVDLSSLTSEDSAVYYCARSPYGYGGSMDYWGQGTSVTVSS
VL: DIQMTQTTSSLSASLGDRVTISCRASQDIHNYLNWYQQKPDGTVKLLIYYTSRLYSGVPSRFSGSGSGTDYSLTISNLEQEDFATYFCQQGNTLPVMFGSGTKLELK
notes: as for B1
binding result [1]: binds

B6: mouse antibody 6G10 (hybridoma clone 6G10) (antibody, V domains shown)
VH: EVMLVESGGGLVKPGGSLKLSCAASGITFSRFAMSWIRQTPEKRLEWVATISSGDMYTYYPDSVKGRFTISRDNANNTLYLQMRSLRSEDTAMYYCAIMITTGEHAYWGQGTLVTVSA
VL: EIKMTQSPSSLSASLGDTITITCRASQDISVWLTWYQQKPGNIPKLLIYKASNLHTGVPPRFSGSGSGTDFTFTISSLQPEDITTYYCLQSQSYPWTFGGGTKLEIK
notes: as for B1
binding result [1]: binds

The next lines start with the values.

binding result [1]: binds
B2: mouse antibody 84C4 (hybridoma clone 84C4) (antibody, V domains shown)
VH: EVQLQQLGAELVRPGASVMLSCKVSGYFFTSYWMNWVNQRPGQGLEWIGMIHPYDSETRLNQKFKGKATLTVDKSASTAYLQLSSPTSEEYAVYYCASSTTAFAYWGQGTLVTVSA
VL: DILMTQSPSSLSASLGERVSLTCRASQDIGNALNWLQQAPDGTIKRLIYATSSLDPGVPKRFSGSRSGSDYSLTISSLASEDFVYYYCLQYASSPYTFGGGTKLEIK
notes: as for B1

IC50; NFκB-luciferase reporter in 293T-hIL36R-NFκB cells stimulated with hIL36α, inhibition rate % [2]: 2.77 nM
EC50 [3]: 3.49 nM
IC50; IL-8 production of NHK cells stimulated with hIL36β, inhibition rate % [4]: 1.27 nM
IC50; IL-8 production of OVCAR8 cells stimulated with hIL36α, inhibition rate % [5]: 0.0704 nM
IC50; NFκB-luciferase reporter in 293T-hIL36R-NFκB cells stimulated with hIL36γ, inhibition rate % [6]: ~40.2 nM
IC50; IL-8 production of OVCAR8 cells stimulated with hIL36γ, inhibition rate % [7]: 0.0727 nM
IC50; IL-8 production of NHK cells stimulated with hIL36γ, inhibition rate % [8]: 0.13 nM
IC50; IL-8 production of NHK cells stimulated with hIL36α, inhibition rate % [9]: 0.555 nM
IC50; IL-8 production of OVCAR8 cells stimulated with hIL36β, inhibition rate % [10]: 0.182 nM
IC50; NFκB-luciferase reporter in 293T-hIL36R-NFκB cells stimulated with hIL36β, inhibition rate % [11]: 1.8 nM
Kd [12]: 0.881 nM
koff [12]: 5.01e-05 s⁻¹
kon [12]: 56900 M⁻¹ s⁻¹
B5: chimeric 6G10 antibody (antibody, human IgG4 S228P, kappa, V domains shown)
VH: EVMLVESGGGLVKPGGSLKLSCAASGITFSRFAMSWIRQTPEKRLEWVATISSGDMYTYYPDSVKGRFTISRDNANNTLYLQMRSLRSEDTAMYYCAIMITTGEHAYWGQGTLVTVSA
VL: EIKMTQSPSSLSASLGDTITITCRASQDISVWLTWYQQKPGNIPKLLIYKASNLHTGVPPRFSGSGSGTDFTFTISSLQPEDITTYYCLQSQSYPWTFGGGTKLEIKR
notes: Mouse variable regions on human IgG4 / kappa; also called xi6G10

binding result [1]: binds
B7: mouse antibody 72C1 (hybridoma clone 72C1) (antibody, V domains shown)
VH: EVQLQQSGPSLVKPSQTLSLTCSVTGASITSGYWNWIRNFPGNKLEYMGYISYSGYTYYNPSLKSRISITRDTSKNQYYLQLISVTTEDTATYYCATGGYDYVEDALYYWGQGTSVTVSS
VL: EILLTQSPAIMSATLGEKVTMSCRASSNVRYMYWYQLKSGASPKLWIYLTSNLASGVPARFSGSGSGTSYSLTISSVEAEDAATYFCQQFTTSPYTFGGGTKLEIK
notes: as for B1
